Assay results from IntAct's records for PubMed 23395182.

B1: Syndecan-1 (Homo sapiens), P18827 (parent)
chain: MRRAALWLWLCALALSLQPALPQIVATNLPPEDQDGSGDDSDNFSGSGAGALQDITLSQQTPSTWKDTQLLTAIPTSPEPTGLEATAASTSTLPAGEGPKEGEAVVLPEVEPGLTAREQEATPRPRETTQLPTTHLASTTTATTAQEPATSHPHRDMQPGHHETSTPAGPSQADLHTPHTEDGGPSATERAAEDGASSQLPAAEGSGEQDFTFETSGENTAVVAVEPDRRNQSPVDQGATGASQGLLDRKEVLGGVIAGGLVGLIFAVCLVGFMLYRMKKKDEGSYSLEEPKQANGGAYQKPTKQEEFYA
B2: Rho guanine nucleotide exchange factor TIAM1 (Homo sapiens), Q13009 (parent)
chain: MGNAESQHVEHEFYGEKHASLGRKHTSRSLRLSHKTRRTRHASSGKVIHRNSEVSTRSSSTPSIPQSLAENGLEPFSQDGTLEDFGSPIWVDRVDMGLRPVSYTDSSVTPSVDSSIVLTAASVQSMPDTEESRLYGDDATYLAEGGRRQHSYTSNGPTFMETASFKKKRSKSADIWREDSLEFSLSDLSQEHLTSNEEILGSAEEKDCEEARGMETRASPRQLSTCQRANSLGDLYAQKNSGVTANGGPGSKFAGYCRNLVSDIPNLANHKMPPAAAEETPPYSNYNTLPCRKSHCLSEGATNPQISHSNSMQGRRAKTTQDVNAGEGSEFADSGIEGATTDTDLLSRRSNATNSSYSPTTGRAFVGSDSGSSSTGDAARQGVYENFRRELEMSTTNSESLEEAGSAHSDEQSSGTLSSPGQSDILLTAAQGTVRKAGALAVKNFLVHKKNKKVESATRRKWKHYWVSLKGCTLFFYESDGRSGIDHNSIPKHAVWVENSIVQAVPEHPKKDFVFCLSNSLGDAFLFQTTSQTELENWITAIHSACATAVARHHHKEDTLRLLKSEIKKLEQKIDMDEKMKKMGEMQLSSVTDSKKKKTILDQIFVWEQNLEQFQMDLFRFRCYLASLQGGELPNPKRLLAFASRPTKVAMGRLGIFSVSSFHALVAARTGETGVRRRTQAMSRSASKRRSRFSSLWGLDTTSKKKQGRPSINQVFGEGTEAVKKSLEGIFDDIVPDGKREKEVVLPNVHQHNPDCDIWVHEYFTPSWFCLPNNQPALTVVRPGDTARDTLELICKTHQLDHSAHYLRLKFLIENKMQLYVPQPEEDIYELLYKEIEICPKVTQSIHIEKSDTAADTYGFSLSSVEEDGIRRLYVNSVKETGLASKKGLKAGDEILEINNRAADALNSSMLKDFLSQPSLGLLVRTYPELEEGVELLESPPHRVDGPADLGESPLAFLTSNPGHSLCSEQGSSAETAPEETEGPDLESSDETDHSSKSTEQVAAFCRSLHEMNPSDQSPSPQDSTGPQLATMRQLSDADKLRKVICELLETERTYVKDLNCLMERYLKPLQKETFLTQDELDVLFGNLTEMVEFQVEFLKTLEDGVRLVPDLEKLEKVDQFKKVLFSLGGSFLYYADRFKLYSAFCASHTKVPKVLVKAKTDTAFKAFLDAQNPKQQHSSTLESYLIKPIQRILKYPLLLRELFALTDAESEEHYHLDVAIKTMNKVASHINEMQKIHEEFGAVFDQLIAEQTGEKKEVADLSMGDLLLHTTVIWLNPPASLGKWKKEPELAAFVFKTAVVLVYKDGSKQKKKLVGSHRLSIYEDWDPFRFRHMIPTEALQVRALASADAEANAVCEIVHVKSESEGRPERVFHLCCSSPESRKDFLKAVHSILRDKHRRQLLKTESLPSSQQYVPFGGKRLCALKGARPAMSRAVSAPSKSLGRRRRRLARNRFTIDSDAVSASSPEKESQQPPGGGDTDRWVEEQFDLAQYEEQDDIKETDILSDDDEFCESVKGASVDRDLQERLQATSISQRERGRKTLDSHASRMAQLKKQAALSGINGGLESASEEVIWVRREDFAPSRKLNTEI
partner: B1 chain

Variants of: B1
Settings: with tiam1_human TIAM1, Q13009

effect of a mutation on the interaction	Variant
decreasing interaction strength	E306K

Variants of: B2
Settings: with sdc1_human SDC1, P18827

effect of a mutation on the interaction	Variant
decreasing interaction strength	K912E
decreasing interaction strength	K879E
